# Assay results reported in article PMC10998593.
# Target: GST-NSUN5 (UniProt Q96P11 1-429)
# Assay: EMSA
# GST-NSUN5, sequence (Q96P11 whole entry): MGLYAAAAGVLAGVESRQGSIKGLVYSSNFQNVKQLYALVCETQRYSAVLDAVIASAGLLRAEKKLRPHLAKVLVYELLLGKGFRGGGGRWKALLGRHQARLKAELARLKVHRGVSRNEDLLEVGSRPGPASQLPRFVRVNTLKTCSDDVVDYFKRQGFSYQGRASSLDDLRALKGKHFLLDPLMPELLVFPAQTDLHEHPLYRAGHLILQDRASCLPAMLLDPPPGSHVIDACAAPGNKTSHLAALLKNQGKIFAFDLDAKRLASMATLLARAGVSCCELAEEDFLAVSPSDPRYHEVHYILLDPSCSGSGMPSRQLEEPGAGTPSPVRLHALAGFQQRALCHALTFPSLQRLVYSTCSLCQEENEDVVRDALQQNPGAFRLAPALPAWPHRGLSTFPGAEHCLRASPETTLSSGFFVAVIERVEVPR
binder,measurement,value
"GUCCUUCGGGCUGGUGACAGGG (ssRNA) [Probe1 (Oligo 1), CTNNB1]",binding result,binds
